From patent US20170037088A1 (published 2017)
Values belong to the molecule of their own block, whether it stands above or below them.

How the values were obtained:
hGHR-Fc (human) = hGHR-Fc (human) (UniProt P10912); experiment: ELISA
[1] = biological target: AC299 (FIX-XTEN_AE864 with an XTEN release site specific for FXI) (UniProt P00740)
[2] = biological target: AC300 (FIX-XTEN_AE864 with an XTEN release site specific for thrombin) (UniProt P00740)
[3] = biological target: AC296 (FIX-XTEN_AE864 that lacks an XTEN release site) (UniProt P00740)
glucagon receptor = glucagon receptor (UniProt P47871 26-477, limits assumed); experiment: cell-based or functional assay

Chain of hGHR-Fc (human) (P10912 19-264): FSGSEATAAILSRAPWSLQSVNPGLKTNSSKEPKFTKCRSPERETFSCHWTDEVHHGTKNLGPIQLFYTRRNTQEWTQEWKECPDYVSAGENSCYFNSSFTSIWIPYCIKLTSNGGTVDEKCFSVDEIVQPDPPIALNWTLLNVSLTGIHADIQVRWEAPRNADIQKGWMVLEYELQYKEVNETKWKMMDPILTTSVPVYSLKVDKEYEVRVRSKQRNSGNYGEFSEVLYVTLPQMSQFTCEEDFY

EC50 (hGHR-Fc (human)): 16.2 nM
Molecule: AE912-hGH-AE144

Molecule: immobilized thrombin (Thrombin CleanCleave Kit, RECOM-T, Sigma)
Clotting activity (ng/ng), with thrombin [1]: 0.02 ng/ng
Clotting activity (ng/ng), with thrombin [2]: 0.8 ng/ng
Clotting activity (ng/ng), with thrombin [3]: 0.01 ng/ng

EC50, real-time calcium mobilization (FLIPR) (glucagon receptor): 72 nM
B1: glucagon-Y288 (other)
chain: HSQGTFTSDYSKYLDSRRAQDFVQWLMNTGEGSGEGSEGEGSEGSGEGEGSEGSGEGEGGSEGSEGEGGSEGSEGEGGSEGSEGEGSGEGSEGEGGSEGSEGEGSGEGSEGEGSEGGSEGEGGSEGSEGEGSGEGSEGEGGEGGSEGEGSEGSGEGEGSGEGSEGEGSEGSGEGEGSGEGSEGEGSEGSGEGEGSEGSGEGEGGSEGSEGEGSEGSGEGEGGEGSGEGEGSGEGSEGEGGGEGSEGEGSGEGGEGEGSEGGSEGEGGSEGGEGEGSEGSGEGEGSEGGSEGEGSEGGSEGEGSEGSGEGEGSEGSGE
